Assay [1] has as its system Staphylococcus aureus (JCM-2151). The experiment in a line: Viability assay (survival rate) in cow's milk medium. It is filed as cell-based. The method, then:
The colonies grown on the culture medium were scraped by a platinum loop and cultivated in 1% peptone (by Difco Company) culture medium for several hours at 37° C., and the resultant microbial culture at logarithmic phase was used as the preculture in a serial concentration of 3×10^8 /ml.
A quantity of the resultant solutions of the samples were selectively mixed with a quantity of the basal medium, thereby test media for the respective tests were prepared in the combinations and eventual concentrations as specified in the respective tests.
Utilizing the samples (5), (7), (8), (9), (10), (14), (15), (17), (18) and (19), test media were prepared in the same manner as in the preparation of the test media containing sample (3) and the like, except that the aqueous solution (in the cases of samples (5) and (7), aqueous suspensions) were not dealt with sterilization filters.
To 2 ml aliquots of test media prepared in (3-1) (supra), […] aliquots of the preculture of Staphylococcus aureus prepared in (1) (2. Method, supra) were added, then incubated at 37° C. for 1 hour, 200 μl aliquots of the resultant cultures were taken out and diluted with 1% peptone solution in a series of 10^n respectively, 110 μl aliquots of the resultant dilution series were spread onto plates of standard agar culture medium, and after incubation at 37° C. for 24 hours the number of colonies grown on the plates were counted (Test. Colony Count).
Control coloney counts 1 were determined in the same manner as in the determination of the test coloney counts, except that […] aliquots of the preculture of Staphylococcus aureus prepared in (1) (2. Method, supra) were added to 2 ml aliquots of the respective control media 1 prepared in (3-2) (supra). Furthermore, control coloney counts 2 were determined in the same manner as in the determination of the test coloney counts, except that […] aliquots of the preculture of Staphylococcus aureus prepared in (1) (supra) were added to 2 ml aliquots of the respective control media 1 prepared in (3-2) (supra).
Survival rate 1=(Test Colony Count/Control Colony Count 1)×100
Survival rate 2=(Control Colony Count 2/Control Colony Count 1)×100
(Note: In the tables shown hereinafter, vulues of survival rate 2 are indicated in the row where the concentration of antimicrobial peptide or lactoferrin hydrolysate is 0.)

Assay [2] relates to microorganisms belonging to the genera of Staphylococcus and Enterococcus. To be noted: Journal of Dairy Science, Vol. 67, page 606, 1984; cited from earlier work.

B1: lactoferrin: Bovine lactoferrin on the market (by Sigma Company) (protein)
chain: APRKNVRWCTISQPEWFKCRRWQWRMKKLGAPSITCVRRAFALECIRAIAEKKADAVTLDGGMVFEAGRDPYKLRPVAAEIYGTKESPQTHYYAVAVVKKGSNFQLDQLQGRKSCHTGLGRSAGWIIPMGILRPYLSWTESLEPLQGAVAKFFSASCVPCIDRQAYPNLCQLCKGEGENQCACSSREPYFGYSGAFKCLQDGAGDVAFVKETTVFENLPEKADRDQYELLCLNNSRAPVDAFKECHLAQVPSHAVVARSVDGKEDLIWKLLSKAQEKFGKNKSRSFQLFGSPPGQRDLLFKDSALGFLRIPSKVDSALYLGSRYLTTLKNLRETAEEVKARYTRVVWCAVGPEEQKKCQQWSQQSGQNVTCATASTTDDCIVLVLKGEADALNLDGGYIYTAGKCGLVPVLAENRKSSKHSSLDCVLRPTEGYLAVAVVKKANEGLTWNSLKDKKSCHTAVDRTAGWNIPMGLIVNQTGSCAFDEFFSQSCAPGADPKSRLCALCAGDDQGLDKCVPNSKEKYYGYTGAFRCLAEDVGDVAFVKNDTVWENTNGESTADWAKNLNREDFRLLCLDGTRKPVTEAQSCHLAVAPNHAVVSRSDRAAHVKQVLLHQQALFGKNGKNCPDKFCLFKSETKNLLFNDNTECLAKLGGRPTYEEYLGTEYVTAIANLKKCSTSPLLEACAFLTR
Regarding B1, the survival rate in assay [1] (Test 1: peptide 0, lactoferrin 0.1 mg/ml) is 150; in assay [1] (Test 1: peptide 0, lactoferrin 1 mg/ml), 150; in assay [1] (Test 1: peptide 0, lactoferrin 10 mg/ml), 104; in assay [1] (Test 20: peptide 0, 1-monolauroyl-rac-glycerol 0, bovine lactoferrin 1 mg/ml), 105%. Besides, the “antimicrobial activity of the compound added without antimicrobial peptide or lactoferrin hydrolysate (in words)” value in assay [1] (compound alone) is “no antimicrobial activity was observed”. Also, the “effect of the coexisting compound on the antimicrobial activity of the antimicrobial peptide (in words)” value is reported as “augments the antimicrobial activity of the peptide” in assay [1] (with antimicrobial peptide Seq. ID No. 26) and “further augments the antimicrobial activity of the antimicrobial peptides” in assay [1] (with antimicrobial peptide Seq. ID No. 27). In assay [2], the “concentration in which lactoferrin exhibits antimicrobial activity” value was 0.5 to 80 mg/mL.

The values are drawn from patent US5656591A, “Antimicrobial agents and method for treating products therewith” (Morinaga Milk Industry Co., Ltd., priority 1992, dated 1997).
